Target: T1, TβRII-GFP, P37173
T1 chain: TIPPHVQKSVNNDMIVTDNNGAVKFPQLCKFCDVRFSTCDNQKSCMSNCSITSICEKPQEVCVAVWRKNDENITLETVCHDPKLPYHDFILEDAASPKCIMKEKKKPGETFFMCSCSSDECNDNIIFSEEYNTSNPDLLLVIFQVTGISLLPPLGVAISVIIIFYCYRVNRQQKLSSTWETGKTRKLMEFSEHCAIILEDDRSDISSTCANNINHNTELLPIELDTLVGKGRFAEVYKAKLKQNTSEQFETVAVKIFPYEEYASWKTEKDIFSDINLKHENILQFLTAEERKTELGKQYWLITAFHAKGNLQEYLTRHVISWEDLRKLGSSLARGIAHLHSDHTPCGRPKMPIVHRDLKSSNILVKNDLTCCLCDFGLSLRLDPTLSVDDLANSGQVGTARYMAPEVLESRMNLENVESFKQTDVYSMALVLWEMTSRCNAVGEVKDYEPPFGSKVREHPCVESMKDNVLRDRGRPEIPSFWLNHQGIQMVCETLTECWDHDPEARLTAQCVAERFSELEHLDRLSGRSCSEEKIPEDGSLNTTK
Assay: single-molecule photobleaching step counting (TIRFM); TβRII-GFP on the membrane of fixed HeLa cells 4 h after transfection; after TGF-β1 10 ng/mL for 15 min at 37 °C; room temperature
Settings: remark: other sources report otherwise

percent of spots bleaching in one step (monomers), after TGF-β1: 67.7% | percent of spots bleaching in three steps, after TGF-β1: 0.6% | percent of spots bleaching in two steps (dimers), after TGF-β1: 31.6%
B1: TβRII-GFP, P37173 23-567 (receptor)
chain: TIPPHVQKSVNNDMIVTDNNGAVKFPQLCKFCDVRFSTCDNQKSCMSNCSITSICEKPQEVCVAVWRKNDENITLETVCHDPKLPYHDFILEDAASPKCIMKEKKKPGETFFMCSCSSDECNDNIIFSEEYNTSNPDLLLVIFQVTGISLLPPLGVAISVIIIFYCYRVNRQQKLSSTWETGKTRKLMEFSEHCAIILEDDRSDISSTCANNINHNTELLPIELDTLVGKGRFAEVYKAKLKQNTSEQFETVAVKIFPYEEYASWKTEKDIFSDINLKHENILQFLTAEERKTELGKQYWLITAFHAKGNLQEYLTRHVISWEDLRKLGSSLARGIAHLHSDHTPCGRPKMPIVHRDLKSSNILVKNDLTCCLCDFGLSLRLDPTLSVDDLANSGQVGTARYMAPEVLESRMNLENVESFKQTDVYSMALVLWEMTSRCNAVGEVKDYEPPFGSKVREHPCVESMKDNVLRDRGRPEIPSFWLNHQGIQMVCETLTECWDHDPEARLTAQCVAERFSELEHLDRLSGRSCSEEKIPEDGSLNTTK
